Experimental data from patent US9327008B2, “Cell-permeant peptide-based inhibitor of kinases” (Purdue Research Foundation, priority 2008, dated 2016).

Target: MK2 (Homo sapiens, UniProt P49137)
Assay: Omnia fluorescence-based kinase activity assay for MAPKAP-K2 (reaction velocity)
Assay type: biochemical
Design: purchased Invitrogen
Details: 100 μM peptide; percentage change in MK2 reaction velocity versus unsubstituted KALNRQLGVAA at 100 μM; SD of three samples
Procedure: The Omnia® Kinase Assay for MAPKAP-K2 kit (Invitrogen, Carlsbad, Calif.), was used to determine the reaction velocity for MK2 in the presence and absence of each of the peptides listed in Table 1. The kit contains a proprietary reaction buffer to which the following were added (final concentrations are given): 1 mM ATP, 0.2 mM DTT, 10 μM MAPKAP-K2 Sox-modified peptide substrate, 5 ng MK2, and the inhibitor peptide of interest (final volume of 50 μL). Human MK2 was purchased from Invitrogen. The reactions were performed at 30° C. in the wells of a low-protein-binding 96-well plate provided with the kit, and fluorescence readings (excitation=360 nm, emission=485 nm) were taken every 30 seconds for 20 minutes using a SpectraMax M5 Spectrophotometer (Molecular Devices). Reaction velocity was determined for each reaction well from the slope of a plot of relative fluorescence units versus time. Each inhibitor peptide was tested at least at four concentrations, 12.5, 25, 50 and […], in triplicate.
In Table 1, “a” represents that the results shown are for 100 μM for all peptides; “b” represents the percentage change in MK2 reaction velocity versus the unsubstituted peptide ([…]) [SEQ ID NO: 13] at a concentration of 100 μM; “c” represents the error reported as the standard deviation between three samples.

Sequence of MK2 (P49137 whole entry): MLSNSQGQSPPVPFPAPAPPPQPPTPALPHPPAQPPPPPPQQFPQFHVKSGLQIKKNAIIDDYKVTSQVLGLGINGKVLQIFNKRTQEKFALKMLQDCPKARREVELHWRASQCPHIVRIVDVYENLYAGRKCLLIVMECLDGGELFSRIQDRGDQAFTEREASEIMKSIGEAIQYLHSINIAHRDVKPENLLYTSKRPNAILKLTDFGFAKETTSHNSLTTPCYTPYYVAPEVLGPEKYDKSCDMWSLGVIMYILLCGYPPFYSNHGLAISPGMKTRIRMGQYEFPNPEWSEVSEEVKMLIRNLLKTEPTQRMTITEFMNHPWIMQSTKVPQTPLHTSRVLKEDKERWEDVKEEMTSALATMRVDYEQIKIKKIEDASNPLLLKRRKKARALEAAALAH

Q: Which “percent change in MK2 reaction velocity versus unsubstituted peptide” value does the source give for WLRRIKAWLRRIKALNRQLGVAA here?
A: Its value is −132(10) %.
